Source: paper PMC3433420
“And” between values parts separate entries of the source, which are not always exact repeats. Equal values may be shown once.

Legend:
Assay in all cases: peptide or protein array; SH2/PTB proteins spotted on aldehyde slides, rhodamine peptide titrated in buffer B (20 mM HEPES, 100 mM KCl, 0.1% Tween-20, 5 mM DTT, pH 7.8), 1 h at room temperature; replicate assays
[1] = target: SYK N-terminal SH2 domain (human)
GRB10 SH2 domain (human) = GRB10 SH2 domain (human) (UniProt Q13322)
Chain of GRB10 SH2 domain (human) (Q13322 493-574): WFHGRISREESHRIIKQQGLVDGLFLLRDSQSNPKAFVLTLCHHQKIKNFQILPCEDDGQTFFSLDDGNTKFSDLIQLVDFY

[2] = target: SH2D1A SH2 domain (human) (UniProt O60880)
Chain of SH2D1A SH2 domain (human) (O60880 6-104): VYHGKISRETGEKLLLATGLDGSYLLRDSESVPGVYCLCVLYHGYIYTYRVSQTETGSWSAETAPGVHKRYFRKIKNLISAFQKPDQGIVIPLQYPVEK

[3] = target: RASA1 N-terminal SH2 domain (human) (UniProt P20936)
Chain of RASA1 N-terminal SH2 domain (human) (P20936 whole entry, the tested form may be a part): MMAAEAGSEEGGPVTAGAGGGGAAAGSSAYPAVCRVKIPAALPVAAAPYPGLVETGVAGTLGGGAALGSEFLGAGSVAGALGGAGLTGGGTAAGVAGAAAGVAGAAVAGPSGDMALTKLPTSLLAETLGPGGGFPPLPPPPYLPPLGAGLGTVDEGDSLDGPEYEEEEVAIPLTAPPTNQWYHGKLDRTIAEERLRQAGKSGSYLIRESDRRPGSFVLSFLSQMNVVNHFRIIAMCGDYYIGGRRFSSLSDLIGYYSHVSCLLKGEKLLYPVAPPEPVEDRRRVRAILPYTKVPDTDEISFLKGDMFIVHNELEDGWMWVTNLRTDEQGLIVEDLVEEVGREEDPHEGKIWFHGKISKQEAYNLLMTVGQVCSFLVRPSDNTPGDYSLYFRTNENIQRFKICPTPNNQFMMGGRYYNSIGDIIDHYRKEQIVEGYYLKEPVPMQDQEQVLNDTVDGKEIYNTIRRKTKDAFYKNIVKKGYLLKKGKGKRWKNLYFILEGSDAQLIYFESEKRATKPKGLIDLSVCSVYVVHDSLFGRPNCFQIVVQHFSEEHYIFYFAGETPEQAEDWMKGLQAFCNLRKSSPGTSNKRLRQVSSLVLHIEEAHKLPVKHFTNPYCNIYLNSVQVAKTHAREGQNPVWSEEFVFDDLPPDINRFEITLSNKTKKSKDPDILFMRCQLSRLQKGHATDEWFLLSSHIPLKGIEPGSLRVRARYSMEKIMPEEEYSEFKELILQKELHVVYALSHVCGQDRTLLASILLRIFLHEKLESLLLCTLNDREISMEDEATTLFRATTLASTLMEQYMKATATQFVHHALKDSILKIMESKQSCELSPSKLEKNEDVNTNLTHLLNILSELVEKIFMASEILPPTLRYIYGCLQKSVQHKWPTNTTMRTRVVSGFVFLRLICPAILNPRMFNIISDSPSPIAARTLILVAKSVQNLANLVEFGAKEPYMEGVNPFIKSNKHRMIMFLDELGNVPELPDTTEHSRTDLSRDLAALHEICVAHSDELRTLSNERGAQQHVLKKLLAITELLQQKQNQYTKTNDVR

SH2B3 SH2 domain (human) = SH2B3 SH2 domain (human) (UniProt Q9UQQ2)
Chain of SH2B3 SH2 domain (human) (Q9UQQ2 364-462): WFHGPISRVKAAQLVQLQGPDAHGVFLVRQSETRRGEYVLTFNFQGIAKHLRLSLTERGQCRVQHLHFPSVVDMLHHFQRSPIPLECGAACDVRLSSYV

SRC SH2 domain (human) = SRC SH2 domain (human) (UniProt P12931)
[4] = target: SH3BP2 SH2 domain (human) (UniProt P78314)
Chain of SH3BP2 SH2 domain (human) (P78314 457-555): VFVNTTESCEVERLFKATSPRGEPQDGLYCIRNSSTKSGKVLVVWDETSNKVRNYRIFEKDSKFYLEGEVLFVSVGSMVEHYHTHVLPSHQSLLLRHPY

[5] = target: ZAP70 tandem SH2 domains (human)
TNS3 SH2 domain (human) = TNS3 SH2 domain (human) (UniProt Q68CZ2)
Chain of TNS3 SH2 domain (human) (Q68CZ2 1172-1282): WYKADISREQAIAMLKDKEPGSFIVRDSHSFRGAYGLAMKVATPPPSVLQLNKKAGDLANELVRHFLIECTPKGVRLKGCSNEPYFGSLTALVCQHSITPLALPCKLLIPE

GRB7 SH2 domain (human) = GRB7 SH2 domain (human) (UniProt Q14451)
Chain of GRB7 SH2 domain (human) (Q14451 431-527): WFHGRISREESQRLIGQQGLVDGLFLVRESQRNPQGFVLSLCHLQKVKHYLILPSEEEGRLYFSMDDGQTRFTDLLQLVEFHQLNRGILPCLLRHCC

[6] = target: SH2D2A SH2 domain (human) (UniProt Q9NP31)
Chain of SH2D2A SH2 domain (human) (Q9NP31 95-186): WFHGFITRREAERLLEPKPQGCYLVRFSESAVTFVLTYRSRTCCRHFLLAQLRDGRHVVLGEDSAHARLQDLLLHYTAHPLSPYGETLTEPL

[7] = target: PTPN11 tandem SH2 domains (human)
TEC SH2 domain (human) = TEC SH2 domain (human) (UniProt P42680)
Chain of TEC SH2 domain (human) (P42680 247-345): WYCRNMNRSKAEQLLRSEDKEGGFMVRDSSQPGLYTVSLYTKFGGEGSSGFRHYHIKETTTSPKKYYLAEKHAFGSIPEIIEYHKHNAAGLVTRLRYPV

LYN SH2 domain (human) = LYN SH2 domain (human) (UniProt P07948)
Chain of LYN SH2 domain (human) (P07948 129-226): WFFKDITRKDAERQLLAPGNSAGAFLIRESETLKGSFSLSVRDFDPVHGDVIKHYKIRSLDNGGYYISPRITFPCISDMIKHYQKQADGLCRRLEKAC

BLK SH2 domain (human) = BLK SH2 domain (human) (UniProt P51451)
Chain of BLK SH2 domain (human) (P51451 124-220): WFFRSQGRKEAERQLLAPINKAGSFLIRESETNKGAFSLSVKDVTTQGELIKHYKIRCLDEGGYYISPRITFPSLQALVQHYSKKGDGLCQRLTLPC

[8] = target: SH2D3A SH2 domain (human) (UniProt Q9BRG2)
Chain of SH2D3A SH2 domain (human) (Q9BRG2 15-114): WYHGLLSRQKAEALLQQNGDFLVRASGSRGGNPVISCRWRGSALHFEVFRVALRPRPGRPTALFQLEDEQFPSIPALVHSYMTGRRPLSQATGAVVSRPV

[9] = target: SYK C-terminal SH2 domain (human)
HCK SH2 domain (human) = HCK SH2 domain (human) (UniProt P08631)
Chain of HCK SH2 domain (human) (P08631 144-241): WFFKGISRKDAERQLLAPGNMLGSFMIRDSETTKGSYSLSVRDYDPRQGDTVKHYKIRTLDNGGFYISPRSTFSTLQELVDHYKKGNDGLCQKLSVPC

BCAR3 SH2 domain (human) = BCAR3 SH2 domain (human) (UniProt O75815)
Chain of BCAR3 SH2 domain (human) (O75815 154-253): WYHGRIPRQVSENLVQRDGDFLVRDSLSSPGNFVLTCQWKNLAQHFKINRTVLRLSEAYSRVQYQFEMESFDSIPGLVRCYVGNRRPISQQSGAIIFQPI

[10] = target: PLCG2 tandem SH2 domains (human)

ErbB4 pY1262 phosphopeptide, rhodamine-labelled, for protein microarrays
Kd [1]: 319 nM and 593 nM
Kd (GRB10 SH2 domain (human)): 1500 nM
Kd [2]: 413 nM and 591 nM
Kd [3]: 299 nM and 596 nM
Kd (SH2B3 SH2 domain (human)): 1630 nM
Kd (SRC SH2 domain (human)): 403 nM and 2100 nM
Kd [4]: 403 nM and 1470 nM
Kd [5]: 2710 nM and 1630 nM
Kd (TNS3 SH2 domain (human)): 373 nM and 742 nM
Kd (GRB7 SH2 domain (human)): 341 nM
Kd [6]: 1170 nM
Kd [7]: 536 nM
Kd (TEC SH2 domain (human)): 407 nM and 1190 nM
Kd (LYN SH2 domain (human)): 201 nM and 579 nM
Kd (BLK SH2 domain (human)): 170 nM and 540 nM
Kd [8]: 177 nM and 402 nM
Kd [9]: 408 nM
Kd (HCK SH2 domain (human)): 827 nM
Kd (BCAR3 SH2 domain (human)): 610 nM and 1170 nM
Kd [10]: 126 nM and 381 nM
